Changes are numbered by the printed parent chain.

The chains are these.
B1: DOM1h-574-15 (other)
VH: EVQLLESGGGLVQPGGSLRLSCAASGFTFVKYSMGWVRQAPGKGLEWVSQISNTGDHTYYADSVKGRFTISRDNSKNTLYLQMNSLRAEDTAVYYCAIYTGRWEPFDYWGQGTLVTVSS
notes: VH dAb
B2: DOM1h-574-8 (other)
VH: B1 VH with L45P, D56G
notes: VH dAb
B3: DOM1h-574-12 (other)
VH: B1 VH with I98K
notes: VH dAb
B4: DOM1h-574-17 (other)
VH: B1 VH with L45P
notes: VH dAb
B5: DOM1h-574-7 (other)
VH: B1 VH with D56G
notes: VH dAb
B6: DOM1h-574-10 (other)
VH: B1 VH with V30G, G44D, D56G
notes: VH dAb
B7: DOM1h-574-13 (other)
VH: B1 VH with H57R, I98K
notes: VH dAb
B8: DOM1h-574-11 (other)
VH: B1 VH with D56G, I98K, Y108H
notes: VH dAb
B9: DOM1h-574 (other)
VH: B1 VH with D56G, I98K, R102H
notes: VH dAb; also called parental dAb
B10: DMS0121 (bispecific antibody)
chain: EVQLLESGGGLVQPGGSLRLSCAASGFTFVKYSMGWVRQAPGKGLEWVSQISNTADRTYYAHSVKGRFTISRDNSKNTLYLQMNSLRAEDTAVYYCAIYTGRWVPFEYWGQGTLVTVSSASGGGGSGGGGSGGGGSDIQMTQSPSSLSASVGDRVTITCRASRPIGTTLSWYQQKPGKAPKLLILWNSRLQSGVPSRFSGSGSGTDFTLTISSLQPEDFATYYCAQAGTHPTTFGQGTKVEIKR
notes: anti-TNFR1 dAb / AlbudAb in-line fusion
B11: DMS0124 (bispecific antibody)
chain: EVQLLESGGGLVQPGGSLRLSCAASGFTFVKYSMGWVRQAPGKGLEWVSQISNTADRTYYAHSVKGRFTISRDNSKNTLYLQMNSLRAEDTAVYYCAIYTGRWVPFEYWGQGTLVTVSSASGGGGSGGGGSGGGGSDIQMTQSPSSLSASVGDRVTITCRASQWIGSQLSWYQQKPGKAPKLLIMWRSSLQSGVPSRFSGSGSGTDFTLTISSLQPEDFATYYCAQGLMKPMTFGQGTKVEIKR
notes: as for B10
B12: DMS0115 (bispecific antibody)
chain: EVQLLESGGGLVQPGGSLRLSCAASGFTFVKYSMGWVRQAPGKGLEWVSQISNTADRTYYAHSVKGRFTISRDNSKNTLYLQMNSLRAEDTAVYYCAIYTGRWVPFEYWGQGTLVTVSSASTSGPSDIQMTQSPSSLSASVGDRVTITCRASRPIGTTLSWYQQKPGKAPKLLILWNSRLQSGVPSRFSGSGSGTDFTLTISSLQPEDFATYYCAQAGTHPTTFGQGTKVEIKR
notes: as for B10
B13: DMS0118 (bispecific antibody)
chain: EVQLLESGGGLVQPGGSLRLSCAASGFTFVKYSMGWVRQAPGKGLEWVSQISNTADRTYYAHSVKGRFTISRDNSKNTLYLQMNSLRAEDTAVYYCAIYTGRWVPFEYWGQGTLVTVSSASTSGPSDIQMTQSPSSLSASVGDRVTITCRASQWIGSQLSWYQQKPGKAPKLLIMWRSSLQSGVPSRFSGSGSGTDFTLTISSLQPEDFATYYCAQGLMKPMTFGQGTKVEIKR
notes: as for B10
B14: DMS0116 (bispecific antibody)
chain: B12 chain with T158M, W176F, N177G
notes: as for B10
B15: DMS0111 (bispecific antibody)
chain: EVQLLESGGGLVQPGGSLRLSCAASGFTFVKYSMGWVRQAPGKGLEWVSQISNTADRTYYAHSVKGRFTISRDNSKNTLYLQMNSLRAEDTAVYYCAIYTGRWVPFEYWGQGTLVTVSSASTDIQMTQSPSSLSASVGDRVTITCRASRPIGTTLSWYQQKPGKAPKLLILWNSRLQSGVPSRFSGSGSGTDFTLTISSLQPEDFATYYCAQAGTHPTTFGQGTKVEIKR
notes: as for B10
B16: DMS0112 (bispecific antibody)
chain: B15 chain with T154M, W172F, N173G
notes: as for B10
B17: DOM1h-574-19 (other)
VH: B1 VH with V30G, G44D
B18: DMS0123 (bispecific antibody)
chain: B11 chain with M229R, K230H, M232K
B19: DMS0114 (bispecific antibody)
chain: EVQLLESGGGLVQPGGSLRLSCAASGFTFVKYSMGWVRQAPGKGLEWVSQISNTADRTYYAHSVKGRFTISRDNSKNTLYLQMNSLRAEDTAVYYCAIYTGRWVPFEYWGQGTLVTVSSASTDIQMTQSPSSLSASVGDRVTITCRASQWIGSQLSWYQQKPGKAPKLLIMWRSSLQSGVPSRFSGSGSGTDFTLTISSLQPEDFATYYCAQGLMKPMTFGQGTKVEIKR
B20: DMS0122 (bispecific antibody)
chain: B10 chain with T168M, W186F, N187G
B21: DMS0117 (bispecific antibody)
chain: B13 chain with M219R, K220H, M222K

The first test deals with T1, human TNFR1 (recombinant, R&D Systems cat no. 636-R1/CF, biotinylated) (human, UniProt P19438 30-211, limits assumed, biotinylated with EZ-Link NHS-LC-LC-biotin).
T1 construct: it is not tied to the BIAcore reagent; also called p55; hTNFR1
T1 sequence (looked up): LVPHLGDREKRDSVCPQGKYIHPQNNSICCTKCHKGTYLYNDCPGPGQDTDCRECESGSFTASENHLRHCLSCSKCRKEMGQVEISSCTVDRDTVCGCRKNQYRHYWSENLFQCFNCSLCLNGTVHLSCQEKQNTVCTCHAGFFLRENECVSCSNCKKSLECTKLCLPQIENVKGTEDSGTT
The test is described as follows: BIAcore, human TNFR1.
As for B1, the Kd (commonly the equilibrium constant for the complex coming apart) is 20 nM.

Turning to B2, the Kd was 5.7 nM.

Take B3: the Kd worked out at 23 nM.

B4: the Kd is 8.4 nM.

As for B5, the Kd is 48 nM.

As for B6, the Kd amounted to 19 nM.

B7: the Kd turned out to be 44 nM.

On to B8, for which the Kd amounted to 200 nM.

Take B9: the Kd stood at 210 nM.

For the next test, the target named is T1, human TNFR1 (recombinant, R&D Systems …). The test is described as follows: BIAcore T100, biotinylated human TNFR1 on chip. The method, then:
Furthermore, the affinity and potency of the purified fusion molecules were determined using a BIAcore T100 and the MRC5 cell assay, respectively. The BIAcore T100 is a highly sensitive BIAcore version ideally suited for determination of high affinity binders (Papalia et al., Anal Biochem. 359, p 112 (2006)). Biotinylated, human TNFR1 was coated on the chip and each of the twelve AlbudAb fusions were passed over this surface at four different concentrations (2, 10, 50 and 250 nM). […] This improvement is observed regardless of the AlbudAb used for pairing and largest for the pairings with DOM7h-14-18. A second experiment used to establish if the different pairings affected the functional activity of the anti-TNFR1 dAb was the MRC5 cell assay (Table 8). A more marked difference between the pairings is observed in the MRC5 assay, in which the best potencies are observed in pairings with DOM7h-11-3 and DOM7h-11-12 while pairings with DOM7h-14-10 (DMS0117) lead to significant decreases in potency.
(In SPR one partner is held on a chip, and binding of the other changes the refractive index at the surface.)
For the molecule B10, the Kd was found to be 0.2 nM; the koff (in general, the first-order rate constant of dissociation) was determined as 6e-05 s⁻¹; the association rate constant (kon) (usually the rate constant with which the complex forms) was determined as 300000 M⁻¹ s⁻¹.

Take B11: the Kd came to 0.077 nM, the “fold higher affinity than the other pairings” value amounted to 3 fold, the koff amounted to 3.5e-05 s⁻¹ and the kon came out at 450000 M⁻¹ s⁻¹.

B12: the Kd is 0.16 nM, the koff is 5.8e-05 s⁻¹ and the kon worked out at 360000 M⁻¹ s⁻¹.

Turning to B13, the Kd is 0.076 nM, the “fold higher affinity than the other pairings” value is 3 fold, the koff came to 4.9e-05 s⁻¹ and the kon turned out to be 640000 M⁻¹ s⁻¹.

Consider B14, for which the Kd was 0.14 nM, the koff is 5.4e-05 s⁻¹ and the kon was determined as 370000 M⁻¹ s⁻¹.

In the case of B15, the Kd came out at 0.17 nM, the koff was 6.2e-05 s⁻¹ and the kon turned out to be 370000 M⁻¹ s⁻¹.

Regarding B16, the Kd is 0.14 nM, the koff was 5.5e-05 s⁻¹ and the kon came out at 400000 M⁻¹ s⁻¹.

The target in another test is T2, human TNFR1 on MRC-5 cells (human, UniProt P19438 30-455).
T2 sequence (looked up): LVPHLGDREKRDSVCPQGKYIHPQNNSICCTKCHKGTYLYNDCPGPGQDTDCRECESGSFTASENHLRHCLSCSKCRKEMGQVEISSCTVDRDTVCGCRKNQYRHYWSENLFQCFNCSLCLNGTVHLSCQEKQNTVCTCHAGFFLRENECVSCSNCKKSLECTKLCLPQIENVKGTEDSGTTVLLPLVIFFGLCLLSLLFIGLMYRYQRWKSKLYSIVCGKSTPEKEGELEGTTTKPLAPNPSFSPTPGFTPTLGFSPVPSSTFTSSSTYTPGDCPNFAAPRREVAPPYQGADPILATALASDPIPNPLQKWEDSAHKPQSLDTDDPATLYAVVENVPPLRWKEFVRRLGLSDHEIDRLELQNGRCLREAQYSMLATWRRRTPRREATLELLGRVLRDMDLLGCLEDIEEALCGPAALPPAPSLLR
The test is described as follows: cell-based or functional assay.
Regarding B1, the “MRC-5 ND50 (TNFα-mediated IL-8 release)” value amounted to 300 nM.

As for B17, the “MRC-5 ND50 (TNFα-mediated IL-8 release)” value stood at 140 nM.

For B2, the “MRC-5 ND50 (TNFα-mediated IL-8 release)” value is 10 nM.

For B3, the “MRC-5 ND50 (TNFα-mediated IL-8 release)” value was 130 nM.

As to B4, the “MRC-5 ND50 (TNFα-mediated IL-8 release)” value amounted to 20 nM.

For B5, the “MRC-5 ND50 (TNFα-mediated IL-8 release)” value is 580 nM.

In the case of B6, the “MRC-5 ND50 (TNFα-mediated IL-8 release)” value was 100 nM.

With B7, the “MRC-5 ND50 (TNFα-mediated IL-8 release)” value worked out at 300 nM.

As for B8, the “MRC-5 ND50 (TNFα-mediated IL-8 release)” value was determined as 800 nM.

As to B9, the “MRC-5 ND50 (TNFα-mediated IL-8 release)” value stood at 2200 nM.

A further test concerns the target T2, human TNFR1 on MRC-5 cells. As to the kind of experiment: cell-based or functional assay. This is another data set of the same source.
Consider B18, for which the “MRC5 (ND50 in nM)” value was found to be 5 nM.

Regarding B19, the “MRC5 (ND50 in nM)” value is 3.7 nM.

Consider B10, for which the “MRC5 (ND50 in nM)” value was determined as 1.8 nM.

For B20, the “MRC5 (ND50 in nM)” value was found to be 1.5 nM.

With B11, the “MRC5 (ND50 in nM)” value came to 1.9 nM.

B12: the “MRC5 (ND50 in nM)” value came to 1.7 nM.

As for B13, the “MRC5 (ND50 in nM)” value is 1.4 nM.

On to B14, for which the “MRC5 (ND50 in nM)” value is 1.7 nM.

Consider B15, for which the “MRC5 (ND50 in nM)” value was 1.6 nM.

As for B16, the “MRC5 (ND50 in nM)” value was found to be 1.3 nM.

With B21, the “MRC5 (ND50 in nM)” value was 25.9 nM.

Values taken from patent US20120107330A1 (published 2012).
